According to a protein production outcome set (Wang et al. 2014):

Test: label from the status in PepcDB records

| Sequence | protein production |
| --- | --- |
| MRGRIMSTFTTISSDKLARLIGTANAPVLIDVRTEEDFAADRRLIPGSIRLSHENVPDWGAAFAGRSVIVSCLRGAKLAQGTAAWLRQLGVQAETLDGGFEGWKEAKLPLLDTRKLPPRDAKGRTVWVTRARPKVDRIACPWLIRRFVDPNAVFLYVAPSEVVAVGERFNAAPFDIENVFWSHRGELCTFDVMIEEFGIATPALLRLATLVRGADTARPDLAPEAPGLLAASLGLSRMYDDDLEQLEAGLLLYDAFYRWCRDATAETHNWPTNKVKA | failed |
| IAGPGLGSGVRARVLQSFTVDSSKAGLAPLEVRVLGPRGLVEPVNMVDNGDGTHTVTYTPSQEGPYMVSVKYADEEIPRSPFKVKVLPTYDASKVTASGPGLSSYGVPASLPVDFAIDARDAGEGLLAVQITDQEGKPKRAIVHDNKDGTYAVTYIPDKTGRYMIGVTYGGDDIPLSPYRIRATQTGDASKCLATGPGIASTVKTGEEVGFVVDAKTAGKGKVTCTVLTPDGTEAEADVIENEDGTYDIFYTAAKPGTYVIYVRFGGVDIPNSPFTVMATDGEVTAVEEAPVNACPPGFRPWVTEEAYVPVSDMNGLGFKPFDLVIPFAVRKGEITGEVHMPSGKTATPEIVDNKDGTVTVRYAPTEVGLHEMHIKYMGSHIPESPLQFYVNYPNSGSVSAYGPGLVYGVANKTATFTIVTEDAGEGGLDLAIEGPSKAEISCIDNKDGTCTVTYLPTLPGDYSILVKYNDKHIPGSPFTAKITDDSRRCSQVKLGSAADFLLDISETDLSSLTASIKAPSGRDEPCLLKRLPNNHIGISFIPREVGEHLVSIKKNGNHVANSPVSIMVVQSEIGDARRAKVYGRGLSEGRTFEMSDFIVDTRDAGYGGISLAVEGPSKVDIQTEDLEDGTCKVSYFPTVPGVYIVSTKFADEHVPGSPFTVKISGEGRVKESITRTSRAPSVATVGSICDLNLKIPEINSSDMSAHVTSPSGRVTEAEIVPMGKNSHCVRFVPQEMGVHTVSVKYRGQHVTGSPFQFTVGPLGEGGAHKVRAGGPGLERGEAGVPAEFSIWTREAGAGGLSIAVEGPSKAEITFDDHKNGSCGVSYIAQEPGNYEVSIKFNDEHIPESPYLVPVIAPSDDARRLTVMSLQESGLKVNQPASFAIRLNGAKGKIDAKVHSPSGAVEECHVSELEPDKYAVRFIPHENGVHTIDVKFNGSHVVGSPFKVRVGEPGQAGNPALVSAYGTGLEGGTTGIQSEFFINTTRAGPGTLSVTIEGPSKVKMDCQETPEGYKVMYTPMAPGNYLISVKYGGPNHIVGSPFKAKVTGQRLVSPGSANETSSILVESVTRSSTETCYSAIPKASSDASKVTSKGAGLSKAFVGQKSSFLVDCSKAGSNMLLIGVHGPTTPCEEVSMKHVGNQQYNVTYVVKERGDYVLAVKWGEEHIPGSPFHVTVP | failed |
| MKFPGQRKSKHYFPVKTRDPLLEQLTQQPQPFATYISGIDQTLVDIEAKVEDELLSRYGLPKGNSTLINDEQAHTLYTELKQNGLISDEFAGGTIGNTVHNYSILADDRSVLFGVMSQNIEVGSYAYRYLCNTSSKVDLNYLQPVDGPIGRCFTLISDCGERTFAISKGAMDKLTPEYIDKDIVQGSSALVLTAYLMRASGGDRITDAAMCAIEYAKAAEVPVVLTLGTRFLIEEDPIWWQNFIKEHVTILAMNEDEGEALTGFRDPLLASEKALEWCDMVLTTAGPIGLYTAGYTDDAEKRETSHTLLPGAIPEFNRYEFSRPKLKSDCENPIKVYAHISPYMGGPEKIGNTNGAGDGALSALLHDLAANTFHKTNVPGSSKHKRDGLCYSSFSQICKYANRVAYEVLAQHSPRLSRGLPEREDSLEESYWER | failed |
| MLHGLKQRLEALHHPGELEGSPQNLHQLLGVSIEQSVPQAQTMLVERHLASLTGDEARLLAALSDGSAFALLTLYSGSRFSRGEVLYRYSNAGRAAGIQCNDFIALYLNHLFAQGLVIASDFTESLRTDYELCEGDSDFRKAQAELQIHLPKLSIRRETLRISPLGRQLWTLMTTPADIEE | not failed |
| MSALFLMKTLGLFIATAIAEIVGCYLPYLWLKEGHSVWLLIPAAVSLALFAYLLTLHPAESGRVYAAYGGIYVLTAIVWLRIVDKSPLSNFDLIGTAFVLTGMGILVYGWR | failed |
| MMLNRKDADYYLGKEIMLARIRRGALIPAKVNEEHFWLLIGISSIHSEKIIQALRDYLVFGVSRKDVCERYEVNNGYFSTSLNRLSRISQAAAQMVVYYSLEHHHHHH | not failed |
| MFAPQGLAQFIKVNVTLENGEPVFIYTDANGQVCQGDITVTQAGTITYLLNDQTLKGLKFVGVGFVTPFDGIIDAVTISSDGMLVQLVDLDKTPGTTKFQFVLSNTANTLLVLSPDPQIINRPQN | not failed |
| EEHPRAWIISVGNELLIGRTINTNAAWLGSRLTLLGFEVERVVTVPDRVEDIAEEVGRALGRARVVITTGGLGPTYDDVTLQGVAMALGRGLKLHPGALEMVRRFYSKRGLGLTEDRVKMAMLPDGAEPLENPVGAAPGAVVEARGSLVASLPGVPSEMEAMFEKALRPLLEEIAPPGAVVECGIAVVGVPESSLAPYIKEASRVSPRVYVKSHPQGSEIGKPLVR | failed |
| MHSNINTLIANHRAGHALDQAFYTDAEVFQTDLQEIFYKEWLFAIPACELDKPGSYVTHQVGNYNVIIVRGADNVIRAFHNACRHRGSVICKAKKGNNPKLVCPYHQWTYELDGRLLWARDMGPDFEPSRHGLKTVHCRELAGLIYICLADEAPDFERFAEVARPYLEVHDLSNAKVAHESSIVERGNWKLVWENNRECYHCGGNHPALCRTFPDDPSVTGIEGGETPSNLQAHFDRCEQAGMPSGFHLSGDGQFRVARMPLKEGAESYTMDGKTAVRRWLGRAAFADAGSLLKFHYPTTWNHFLSDHSIVFRVTPISPTETEVTTKWLVHKDAVEGVDYDLQRLTEVWIATNDEDREVVEFNQMGINSPAYEPGPYSPTQESGVLQFVEWYLSTLKRNSGPHAVAAE | not failed |
| DRAVKEFEANGGSSAANGGGAKKRAKPAKKVAKKSKKEESDEDDDDESE | failed |
| MIHADPESAMPAAYAATPFAQRLGLTLPVVQAPMAGVSTPALAAAVSNAGGLGSLGLGAMNADAARQAIALTREQTTRPFNVNLFCHAPATADAAREARWLQYLAPRFAEFDAQPPATLREVYTSFLADDDMFDMLLAERPEVVSLHFGLPPASRIAALRQAGIYLMATATDMREAARIAAAGVDAIVAQGIEAGGHRGMFDPAARDEQLGTLALTRLLARRFDAPVIAAGGIMDGAGVAAVLALGAQAAQLGTAFISCPESSADMPHRHALLDQAEVATTLTRAISGRPARSIANRYTELGAAADCPPTPDYPIAYDAGKALHAAARARGDASYAAQWAGQAAALSRGVPAATLMRQLQAELNDCIGRLAR | failed |
| MSVRPVDAALEGLQTMRRRPLTALAWATFSLVMLPILGLLVKIGLGDEGRQVLAGRGSSADPRELLDLVMNLGGAMVLLVALALLLGAVLQAAIIRSVLEPTNDRFAYLRLGKEEIQLLIVSLITWATALLCTIIPSGVVVLGSSLLSGAAAAWFAFLGALSVIGFSLWVAVRLSLLGPHAFSHHHIDIRAAWIQTHGQFWRLLGMFVLTIAIWILVSLLGAAVAGVIGKWLTAAVNLGASGLAASNSWLILSLLANMLLAPVFLTLQTVILVAAPARAFAQLNQDEIDAGLHA | failed |
| MKVLDSRDFAKVKAIAIERASYRNIGALAVYIGSMTGMRISEVLALTWPDIDTKLCVIHVTRSWDHLYGTGFKPTKTDSSVRDIEISPSVIELLNKIHQEQAASYLRTGYRDEDQMIMRDPRHNVITDSACNKALHVIQNKAGIPEDKQITFHGLRHSHVSYLISKGVDIYYISKRLGHSDVTITMKVYGHLLDSQRKQEAHKAVLFMDQILEHHHHHH | failed |
| MDIAELINHPELLLLVLAPLFFVCILLEWYLGDRRQKLPVSARYHAKEVLCNFSLAAMHQGTDILAGLLIAKLYLAIFGWKLFDIQMGPFTFVLLMVAQDFCYYWFHRASHRIRWMWAAHVVHHSSENMNFSTAFRQSLMYPFAGMWVFWLPLVILGFDPNWVVFVVLLSLGLQFFVHTQAVRKLGPLEWLFNTPSHHRVHHGRNPQYIDKNYAGILIIWDKLFGTFVPEEETVIYGITKPVNSFNPLKVTFSEWHDMFREVTTKGLSLSKRLGILFAPPASYQKDD | failed |
| MTDIIREYYNKNSKNEWLRLNDPYNRLELFSTMYMIKEYFPQEGKILDIGSGPGRYSIELLKRGYEVSLMDLSEKSIDMAKNNIESMGLKANDYICGDALYLDFIKDNTFDGILLMGPMYHVKSREDRIRILENCMRILKPGGIILIAYINSLGVLKVGLSDFPQEYKDINKIYDLFDEKGFSQEESFTETYFTVPEKAISEVNEVGFNILSRAGAESFLSGQAFYMTKYYLEDKEIYFNLLKVATEKCEDERFRDSTEHLIIVAKK | failed |
| MTIAATMLRAITVLMALLLLVAAGPAAAADEGGDLLEQFLGRKYEPVLKPLEIPEGTPPSEALFLYLNQGYGDAGVIGDFLAKGADANYADKEYRITLLHNVAHYGHAEATRILLAAGARVNAVNGEGNTPLFAAVHEGHDDVARILLDAGADVTIANSYWYTPLREACRRGNTGMVRLLLEKGADVNITDNKGFTPLHAAVSAEALEAATLILDSGADINIAGRYGDTPLHYAVGLGYEEFVRLFLARGADPTIRNDRGLTPRQLAEERGFASIVELFRNWGKNTI | failed |
| MSLRQDILLNNNWNFRFSHQVQGDTRRVDLPHTWNAQDALAGKIDYKRGIGNYEKALYIRPEWKGKRLFLRFDGVNSIADVFINRKHIGEHRGGYGAFIFEITDLVKYGEKNSVLVRANNGEQLDIMPLVGDFNFYGGIYRDVHLLITDETCISPLDYASPGVYLVQEVVSPQEAKVCAKVNLSNRAADGTAELQVLVTDGTKVICKESRNVSLKQGADILEQLPLLIQKPRLWNGCEDPFMYQVSISLHKDGKQIDSVTQPLGLRYYHTDPDKGFFLNGKHLPLHGVCRHQDRAEVGNALRPQHHEEDVALMREMGVNAIRLAHYPQATYMYDLMDKHGIVTWAEIPFVGPGGYADKGFVDQASFRENGKQQLIELIRQHYNHPSICFWGLFNELKEVGDNPVEYVKELNALAKQEDPTRPTTSASNQDGNLNFITENIAWNRYDGWYGSTPKTLATFLDRTHKKHPELRIGISEYGAGASIYHQQDSLKQPSASGWWHPENWQTYYHMENWKIIAERPFVWGTFVWNMFDFGAAHRTEGDRPGINDKGLVTFDRKVRKDAFYFYKANWNKQEPMIYLAEKRCRLRYQPEQTFMAFTTAPEAELFVNGVSCGKQKADTYSTVVWKNVKLTSGENIIRVTTPGKKPLTDEVTVEYKEDREGHHHHHH | not failed |
| ANVKLLLPYILKWEGGFVHDPADAGGATNKGVTIATWKRVGYDKDGDGDIDVEDLKLLTDDDVLNRVLKPFYWDRWKADLIESQKVANILVDWVWGSGKYGIVIPQRILGVQADGIVGNKTLQAVNSADPDELFESIFDARREFLEDITARSIKKYEDSIGRKATERELLRHTNKRFLRGWLNRLEDIRKL | not failed |
| MSSMYTTFAEQYDNVVQDNIYNAYLERPSLQAMLGDVNGCDVIDLGCGSGVYADYFIHRGVAKLTCIDYSPNMIEIVKRKFGDRVTAYAQDASIGLIKEASESADLIISPLMIHYLEDLSVLFNDVARVLKNGGNFAFSTHHPFADFECTLSGNYFEREFITEMWNTVGEPVEVTFYRRSLTEIMNAITDSGLVVTQLSEGKVAEEVKQISLEKYEYLSKNPNFIFIKCQKLV | failed |
| MTPYDIKDPDVRRRRFRPIPVRMLVPNVITLLAICAGLTSIRLSIEGRMSLAVYAIVFAAALDGIDGRIARMIKGQSKFGAELDSLADFVNFGVAPGLMLYFWQLHELGNAGWIAAMVFAISGGLRLARFNATMDDPNKPAFAANFFTGVPAPAGAITVLLPIYVAFLDLGRAPAAVTAAYTLLIAFLMVSRLPVFSGKTKRMRVPPELVLPAFVAVIVFIAILIAYPWHVLSIGTVLYLLALPLGYKSYRDQARAMDAATPAGGEISSPPSAPTLANLSEPPHDDDRPGRLH | failed |
| MYLQCYINEKGEKVYTTKKESPLGLATESAHPARFSPDDKYSKQRVLLKKRFGLLPTQNAPLQY | failed |
